Measurements as given in the DeepSol protein solubility set.

assay: soluble on expression in E. coli; label from the status in PepcDB or PDB records

Sequence	soluble on expression in E. coli
MKNLPISIGRIVMQGGHVNFQDQFIQPNYRAYLTDLAGRIGPLNPRKTGEVDIRGAVDKTAPLKISGSVDAFGRELNLDITASAKGIDMPTFSPYSGKYIGYAIEKGKLSVDVHYHVEHGELTAENSIFLDQLTFGEKIESPDAVSIPVNLALALLEHHHHHH	not soluble
MKNNLPIIALDFASAEETLAFLAPFQQEPLFVKVGMELFYQEGPSIVKQLKERNCELFLDLKLHDIPTTVNKAMKRLASLGVDLVNVHAAGGKKMMQAALEGLEEGTPAGKKRPSLIAVTQLTSTSEQIMKDELLIEKSLIDTVVHYSKQAEESGLDGVVCSVHEAKAIYQAVSPSFLTVTPGIRMSEDAANDQVRVATPAIAREKGSSAIVVGRSITKAEDPVKAYKAVRLEWEGIKS	soluble
MKNSFQTLKTLTTKSGTYGYYDLQELERKGVAEVSRLPFSIRVMLESLLRNEDGYQVTREDIEALARWRPDPGEINVPLKLARVILQDFTGVPAVVDLAAMRDAIKAKGGDPKRINPVVPADLVIDHSVQVDAFGTAYAFFYNVEKEYERNRERYLLLKWAQNALENFRVVPPGTGIVHQVNIEYLTKVVMTGKRDGLTLAFPDSLVGTDSHTTMVNGLGVLGWGVGGIEAEAVMLGQPYYMLAPRVVGFKLYGELPEGATATDLVLTVTEMLRKHGVVGKFVEFYGPGVAKLSTPDRATIANMAPEYGATMGFFPVDEETLNYLRQTGRPEELVELVEAYTKAVGLFRTPEAEEKVQYSEYLELDLSAVEPSLAGPKRPQDRVPLKEVKKSFLAHLTKPVKERGFGLSEDQLQRKVLVKRRDEEFELTHGSVVIAAITSCTNTSNPSVMLGAGLLAKKAVEAGLDRKPWVKTSLAPGSKVVTDYLEMSGLMPFLEALGFHLVGYGCTTCIGNSGPLPEDIAKAVEEGNLVVAAVLSGNRNFEGRINPHVKANYLASPMLVVAYALAGRMDIDFTTEPLGFDPNGKPIYLKDIWPSMEEIREAIRKTLDPELFKKEYSKVFEGDERWQALPAPTGELYQWDPESTYIQNPPFFEDLGERKVEDIRGARVLLVLGDSVTTDHISPAGAIPVKSPAGQYLISKGVKPEDFNSYGSRRGNHEVMMRGTFANIRIKNLMLDGIEGGYAKKLPEGDVDFVYNVAMRYKAEGTPLLVIAGKEYGTGSSRDWAAKGTYLLGIRAVLAESFERIHRSNLVGMGVLPLEFLPGENRETLGLTGYEVYDILGLEDLKPRKLVDIVARREDGSEVRFQAIARLDTPVEVDYYKNGGILQTVLLNMLKEAKATE	soluble
MKPIIVKKGDIRRLLKESGEIDGNDGRISVAAHILYQFGDRIVFVKAYENEDIDLKIKNRKNDYRYIKVIASQNGEFHIMDLPIGDRRIGSETLYGLIMASETFGTRLRNEILNMISFEMKRRNSIWILVDKDSHAYYPFTTHSITEIILHDVEYRFERGLIDRNLEIRVPVQFIYNYWQRYLKAKNRTPGEVWASMILQ	not soluble
MKPKDFCTAENWAENLSALGYLAGWRFVRMLPLPIARRVFDLGADLASKSGKGMGQLRANLARVVGAENVTQALVKQATRSYARYWLEAFRLPAIARDPELLARLRKGTVGLDLLDESLAAGKGVVLTLPHSGNWDMAGAFLISHHGQFTTVAERVKPERLFEAFVEFRESLGFEVLPLTGGERPPFEKLKERLTSGGIVCLLGERDLRHSGVETTFFGEKTSMPAGPAQLAIETGAALHVVHPWFDDDGWGLSVSDAVTVDNLSDTVQRIAHLFMANITAHPADWHMLQPLWFGDLDPERLKRSREQTNVHKPVALQEDN	not soluble
MKPKETVCFNIKYSWHAISRMYNERASKYGTTAAVGFILLNIDVEKGTAATHIGPALGMEATSLSRVFNTMEQDGLIERRNDSSDKRKVTIFLTALGKDKRQIAKDFVLDFNNKVREQVSESKLNTFFEVLHEIQSIIDNKNTSLT	soluble
MKPKTLSPILTAKGVRLAIAVGRFNERVTKLLLEGALEAYARLGGDPAEVLVAWVPGSFELPLVAKRLAQRPDVDAVVALGAVIRGETPHFEYVAGQAASGLMQAMLQTEKPIVFGVLTTNTPEEAQERAGGKAGNKGAEAVFTAIEMVRLLEAISR	soluble
MKPLSGLKVLDLSRVLAGPLCTMILADLGAEVVKVEPPWGDETRGWGPPFVEGESAYFLAVNRGKRSVALDLKRPEGQEAVRRLAQKADVLVENFKTGDLRRFGLDYESLKPLNPRLIYLSITGFGHTGPRAKEPGYDAALQGYTGIMSVTGEPEGPPMKVGVAWIDVMTGMMGALAVLAALWERERSGLGQHIDLSLFDVGLFALANLGESFLLTGKPPKRLGNAHAQIVPYGAFPAEDGWLVLAVGNDEQFARLCQVVGLPDLARRFPTNALRVEHREEVVEALSRALKARSRAHWLERFKEAGVPAAPVNDLKEAFQDPQARARGAVWTLPHPLLGALPTLANPLRFLSRTPAGPGLPPPLLGEHTREVLLEAGYTPEAVADLVQRGIAKEAPPASQRRPDRGA	soluble
MKPLSSPLQQYWQTIVERLPEPLAEESLSAQAKSVLTFSDFVQDSISAHPEWLTELESQPPQADEWQHYVAWLQEALINVSDEAGLMRELRLFRRRIMVRIAWAQTLALVTEESILQQLSYLAETLIVAARDWLYDACCREWGTPCNAQGEAQPLLILGMGKLGGGELNFSSDIDLIFAWPEHGCTQGGRWELDNAQFFTRMGQRLIKVLDQPTQDGFVYRVDMRLRPFGESGPLVLSFAALEDYYQEQGRDWERYAMVKARIMGDSEGVYANELRAMLRPFVFRRYIDFSVIQSLRNMKGMIAREVRRRGLTDNIKLGAGGIREIEFIVQVFQLIRGGREPSLQSRSLLPTLSVIAALHLLSENDAEQLRVAYLFLRRLENLLQSINDEQTQTLPSDELNRARLAWAMDFADWPQLTGALTAHMTNVRRVFNELIGDDESETQEESLSEQWRELWQDALQEDDTTPVLAHLSEDDRKQVLTLIADFRKELDKRTIGPRGRQVLDHLMPHLLSDVCAREDAAVTLLRITALLAGIVTRTTYLELLSEFPAALKHLISLCAASPMIASQLARYPLLLDELLDPNTLYQPTATDAYRDELRQYLLRVPEDDEEQQLEALRQFKQAQLLRIAAADIAGTLPVMKVSDHLTWLAEAMIDAVVQQAWVQMVARYGKPNHLNEREGRGFAVVGYGKLGGWELGYSSDLDLIFLHDCPMDAMTDGEREIDGRQFYLRLAQRIMHLFSTRTSSGILYEVDARLRPSGAAGMLVTSTEAFADYQKNEAWTWEHQALVRARVVYGDPQLTAHFDAVRREIMTLPREGKTLQTEVREMREKMRAHLGNKHRDRFDIKADEGGITDIEFITQYLVLRYAHEKPKLTRWSDNVRILELLAQNDIMEEQEAMALTRAYTTLRDELHHLALQELPGHVPEDCFTAERELVRASWQKWLVEE	not soluble
MKPNPPINELVLLQAHQLAERIRLRQVSCREVMQAYLAHIERFNPRVNALVSLLPAERLLEEADARDGELARGEWRGWMHGLPHAIKDLSLTRGIRTTLGSPLYRDYIPERDGIMVERIRAAGAILIGKTNTPEFGLGSQTYNPLFGATACAYDERLSAGGSSGGAAAALALHLVPVADGSDMMGSLRNPAAFNNVIGFRPSQGRVPFDDSADLFFDQLGYEGPMGRSVRDTALLLSVQAGADRRAPLSIAEPGARFAAPLERDFEGTRLGWLGDLDGYLPMQDGILQMCQRALGDFRSLGCEIEEANLGFAPERLWECWRTLRHWLVAGSLGGVHADPAKRALLKPEALWEVENGLRLGADAVFRASVIRSDWYRAIGRLFERYDYLLLPSAQVFPFAKETPWPRSIEGVAMDTYHRWMEVVVPGSLSGCPVANVQAGFNAEGLPMGLQIIGPHQADFAVLQLAHAYERASRWFERQPSPLLAN	not soluble
MKPRNINNSLPLQPLVPDQENKNKKNEEKSVNPVKITMGSGLNYIEQESLGGKYLTHDLSIKIADISEEIIQQAILSAMSIYKFSITDDLMSMAVNELIKLTKIENNVDLNKFTTICTDVLSPRVTRHNKEKNKRHSTLLKNPLFNFH	not soluble
MKPRNINNSLPLQPLVPDQENKNKKNEEKSVNPVKITMGSGLNYIEQESLGGKYLTHDLSIKIADISEEIIQQAILSAMSIYKFSITDDLMSMAVNELIKLTKIENNVDLNKFTTICTDVLSPRVTRHNKEKNKRHSTLLKNPLFNFHLEHHHHHH	soluble
